Measured values: patent publication US20220137067A1

Tests used:
[1] = molecular target: biotin beta-amyloid 1-42 peptide (Anaspec) (human); assay: cell-based or functional assay; conditions: scale: % Relative Potency
[2] = molecular target: Recombinant human amyloid β 1-42 peptide (rPeptide) (human); assay: ELISA on plate-adsorbed recombinant human Aβ 1-42, anti-human IgG-HRP detection, parallel line analysis; mean of three assays; conditions: scale: % Relative Potency

| Phagocytosis Reporter Cell Potency [1] | Aβ Binding Potency (% Relative Potency) [2] | Binder |
| --- | --- | --- |
| 99 | – | crenezumab (antibody, INN chains, looked up, V domains shown) VH: EVQLVESGGGLVQPGGSLRLSCAASGFTFSSYGMSWVRQAPGKGLELVASINSNGGSTYYPDSVKGRFTISRDNAKNSLYLQMNSLRAEDTAVYYCASGDYWGQGTTVTVSS VL: DIVMTQSPLSLPVTPGEPASISCRSSQSLVYSNGDTYLHWYLQKPGQSPQLLIYKVSNRFSGVPDRFSGSGSGTDFTLKISRVEAEDVGVYYCSQSTHVPWTFGQGTKVEIKR |
| 86 | 84 | crenezumab light stress sample (2.4 million lux hours) (antibody, INN chains, looked up, V domains shown, light-stressed degraded sample) VH: EVQLVESGGGLVQPGGSLRLSCAASGFTFSSYGMSWVRQAPGKGLELVASINSNGGSTYYPDSVKGRFTISRDNAKNSLYLQMNSLRAEDTAVYYCASGDYWGQGTTVTVSS VL: DIVMTQSPLSLPVTPGEPASISCRSSQSLVYSNGDTYLHWYLQKPGQSPQLLIYKVSNRFSGVPDRFSGSGSGTDFTLKISRVEAEDVGVYYCSQSTHVPWTFGQGTKVEIKR |
